We go through 23 proteins from patent US20150284477.

The target of series [1] is T1, LPETG (SEQ ID NO: 4) substrate (not fully specified).
T1 chain: LPETG

In the next series the target is T2, GGG-COOH.
T2 chain: GGG

For series [2], the target named is LPESG motif-bearing substrate.
The target in series [3] is T3, LAETG motif-bearing substrate (not fully specified).
T3 chain: LAETG

Numbering of substitutions follows the chain as printed. Names may count otherwise.

B1: P94S/D160N/K196T (protein)
chain: MQAKPQIPKDKSKVAGYIEIPDADIKEPVYPGPATSEQLNRGVSFAEENESLDDQNISIAGHTFIDRPNYQFTNLKAAKKGSMVYFKVGNETRKYKMTSIRNVKPTDVEVLDEQKGKDKQLTLITCDDYNEKTGVWETRKIFVATEVKLEHHHHHH
As to B1, the Km LPETG in series [1] is 560 µM. For the same protein, the Km GGG-COOH with GGG-COOH was 1830 ± 330 µM.

B2: D160N/K190E/K196T (clone 4.2) (protein)
chain: B1 chain with S36P, K132E
Turning to B2, the Km LPETG in series [1] is 1600 µM. The Km GGG-COOH in the series with GGG-COOH was found to be 1200 ± 200 µM.

B3: srtA D165A (protein)
chain: B1 chain with S36P, N102D, D107A, T138K
Turning to B3, in series [1], the Km LPETG worked out at 3600 µM. In the series with GGG-COOH, the Km GGG-COOH is 1000 ± 480 µM.

B4: P94R/D160N/D165A/K190E/K196T pentamutant sortase A (protein)
chain: B1 chain with S36R, D107A, K132E
Take B4: in series [1], the “KM LPETG against the tetramutant” value was “the kcat and KM LPETG were not altered by more than a factor of 1.3-fold”; the Km LPETG turned out to be 230 µM; the Km, LxExG (uM); column 5mut/wt was 208 µM. Moreover, the Km, LxExG (uM); column 5mut/4S in series [2] is 672 µM. For the same protein, in the series with GGG-COOH, the “Km GGG against the tetramutant” value is listed as “the Km GGG of this mutant improved by 1.8-fold”; the “Km GGG against wild type srtA” value is given as “a 20-fold higher Km GGG”; the Km GGG-COOH turned out to be 2900 ± 200 µM; the Km, GGG (uM); column 5mut/wt is 2990 µM. In addition, in series [3], the Km, LxExG (uM); column 5mut/2A was 6160 µM.

B5: P94S/D160N/D165A/K196T (protein)
chain: B1 chain with D107A
For the protein B5, in series [1], the Km LPETG came to 170 µM and the “LPETG recognition (Km LPETG) against wild type SrtA” value was 45-fold improved LPETG (SEQ ID NO: 4) recognition. For the same protein, the Km GGG-COOH in the series with GGG-COOH stood at 4800 ± 700 µM.

B6: srtA P94S (protein)
chain: B1 chain with N102D, T138K
Consider B6, for which the Km LPETG in series [1] was determined as 2500 µM. Also, the Km GGG-COOH with GGG-COOH was 650 µM.

B7: P94S/D165A (clone 4.3) (protein)
chain: B1 chain with N102D, D107A, T138K
B7: the Km LPETG in series [1] came to 1100 µM. Also, the Km GGG-COOH with GGG-COOH turned out to be 1700 ± 400 µM.

B8: P94S/D160N/D165A (protein)
chain: B1 chain with D107A, T138K
For B8, in series [1], the Km LPETG stood at 510 µM. The Km GGG-COOH with GGG-COOH worked out at 1750 ± 250 µM.

B9: wild type S. aureus sortase A (truncated, His tagged) (protein)
chain: B1 chain with S36P, N102D, T138K
As to B9, in series [1], the Km LPETG is 7600 µM and the Km, LxExG (uM); column wt/wt worked out at 5180 µM. Moreover, in the series with GGG-COOH, the Km GGG-COOH worked out at 140 µM and the Km, GGG (uM); column wt/wt was 291 µM.

B10: srtA D160N (protein)
chain: B1 chain with S36P, T138K
Consider B10, for which, in series [1], the Km LPETG was 3700 µM. The Km GGG-COOH with GGG-COOH amounted to 330 µM.

B11: srtA K196T (protein)
chain: B1 chain with S36P, N102D
With B11, in series [1], the Km LPETG worked out at 3300 µM. The Km GGG-COOH with GGG-COOH is 200 µM.

B12: sortase 2A.3.5 (protein)
chain: QAKPQIPKDKSKVAGYIEIPDADIKEPVYPGPATREQLNRGVSFAEENESLDDQNISIAGHTFIDRPNYQFTNLKAAKKGSMVYFKVGNETRKYKMTSIRNVRPTAVEILDEQKGKDKQLTLFTCDDYNEETGVWETRKIFVATEVK
In the case of B12, the Km, LxExG (uM); column 2A.3.5/wt in series [1] was 4110 µM. In addition, the Km, LxExG (uM); column 2A.3.5/2A in series [3] stood at 7160 µM.

B13: sortase 4S.6B (protein)
chain: B12 chain with N39D, A45V, A59S, F63A, K75P, R103K, I109V, F123V, E130P
Turning to B13, the Km, LxExG (uM); column 4S.6B/wt in series [1] amounted to 238 µM. Moreover, in series [2], the Km, LxExG (uM); column 4S.6B/4S stood at 312 µM. Besides, the Km, GGG (uM); column 4S.6B/4S with GGG-COOH is 15700 µM.

B14: sortase 4S.6A (protein)
chain: B12 chain with N39D, A45V, A59T, F63A, K75G, R103K, I109V, F123V, E130V
Regarding B14, the Km, LxExG (uM); column 4S.6A/wt in series [1] is 1290 µM. Further, the Km, LxExG (uM); column 4S.6A/4S in series [2] stood at 102 µM. In addition, the Km, GGG (uM); column 4S.6A/4S with GGG-COOH was found to be 4950 µM.

B15: sortase 4S.4 (protein)
chain: B12 chain with A45V, A59T, F63S, R103K, I109V, F123V
For B15, in series [1], the Km, LxExG (uM); column 4S.4/wt turned out to be 339 µM. In series [2], the Km, LxExG (uM); column 4S.4/4S was found to be 1410 µM.

B16: sortase 2A.6C (protein)
chain: B12 chain with A45H, K79P, K93I, N101K, I109V, F123V
For the protein B16, in series [1], the Km, LxExG (uM); column 2A.6C/wt worked out at 1980 µM. In addition, in the series with GGG-COOH, the Km, GGG (uM); column 2A.6C/2A came out at 642 µM. Further, the Km, LxExG (uM); column 2A.6C/2A in series [3] came out at 343 µM.

B17: sortase 2A.6B (protein)
chain: B12 chain with R40K, A45H, K79V, N101K, I109V, F123V
In the case of B17, the Km, GGG (uM); column 2A.6B/2A with GGG-COOH came out at 642 µM. The Km, LxExG (uM); column 2A.6B/2A in series [3] was 310 µM.

B18: sortase 4S.3.5 (protein)
chain: B12 chain with A45T, A59T, R103K, I109V, F123V
For the protein B18, the Km, LxExG (uM); column 4S.3.5/4S in series [2] came out at 7310 µM.

B19: sortase 2A.5 (protein)
chain: B12 chain with R40H, A45H, K79I, I109V, F123V
For the protein B19, in series [1], the Km, LxExG (uM); column 2A.5/wt was determined as 4900 µM. The Km, GGG (uM); column 2A.5/2A with GGG-COOH was found to be 2810 µM. For the same protein, the Km, LxExG (uM); column 2A.5/2A in series [3] was 433 µM.

B20: sortase 2A.6A (protein)
chain: B12 chain with A45H, K79V, I109V, F123V
For B20, the Km, LxExG (uM); column 2A.6A/wt in series [1] came to 3290 µM. In addition, the Km, GGG (uM); column 2A.6A/2A with GGG-COOH worked out at 1040 µM. Further, the Km, LxExG (uM); column 2A.6A/2A in series [3] is 608 µM.

B21: sortase 4S.5 (protein)
chain: B12 chain with N39D, A45V, A59T, F63A, K75R, R103K, I109V, F123V
As for B21, the Km, LxExG (uM); column 4S.5/wt in series [1] amounted to 12.2 µM. For the same protein, in series [2], the Km, LxExG (uM); column 4S.5/4S came out at 76 µM. Moreover, the Km, GGG (uM); column 4S.5/4S with GGG-COOH was found to be 26700 µM.

B22: sortase 2A.4 (protein)
chain: B12 chain with A45H, F123V
Consider B22, for which the Km, LxExG (uM); column 2A.4/wt in series [1] came out at 11700 µM. Also, the Km, LxExG (uM); column 2A.4/2A in series [3] came to 3250 µM.

B23: sortase 4S.6C (protein)
chain: B12 chain with N39D, A45V, A59T, F63A, K75R, R103K, I109V, F123V, E130F
On to B23, for which the Km, LxExG (uM); column 4S.6C/wt in series [1] came to 16.1 µM. For the same protein, in series [2], the Km, LxExG (uM); column 4S.6C/4S worked out at 156 µM. Further, in the series with GGG-COOH, the Km, GGG (uM); column 4S.6C/4S was 36000 µM.
